Laboratory results from the DeepSol protein solubility set.

Test: soluble on expression in E. coli; label from the status in PepcDB or PDB records

Soluble on expression in E. coli, soluble:
MNWGEGEWNSFFHFFTKEFINMSESFKELFEQSIAGAQFYPGAIITAKVIDIDDDFVTLNAGLKSEGIVAVEEFYDKNGELEVKVGDTVEVALDSVEDGHGETLLSREKAKRQEAWRKLSKCHENNETVTGLISGKVKGGFTVEIGSIRAFLPGSLVDVRPVRDPSYLEGKELEFKVIKMDLKRNNIVVSRRAVVEEESSADRQALLESLHDGQELHGIVKNLTDYGAFIDLGGIDGLLHITDISWKRVKHPSEVLSVGQDVKVKVLSFDSERNRVSLGMKQLGNDPWVDLVERYPIGKRLQGKVTNITDYGCFVEIEEGVEGLVHMSEMDWTNKNVHPSKVVSLGDVVDVMVLEIDEERRRISLGMKQCVGNPWQQFASTHNKGEKVKGKIRSITDFGIFIGLDGDIDGLVHLSDISWTVPGEEAVKQFKKGQELEAVILAIDPERERISLGLKQLEGDSFASFAETYTKGSIVKGTVTAVEPKTVTVALAEDVSGTIRVSELSDERVDDATTIVKVGDEVEAKITNIDRKNRTISLSVKAKDAQDEADAIKKYSRTEAASTTLGDLLKEKMASKEGELEHHHHHH
MSEFSQTVPELVAWARKNDFSISLPVDRLSFLLAVATLNGERLDGEMSEGELVDAFRHVSDAFEQTSETIGVRANNAINDMVRQRLLNRFTSEQAEGNAIYRLTPLGIGITDYYIRQREFSTLRLSMQLSIVAGELKRAADAAEEGGDEFHWHRNVYAPLKYSVAEIFDSIDLTQRLMDEQQQQVKDDIAQLLNKDWRAAISSCELLLSETSGTLRELQDTLEAAGDKLQANLLRIQDATMTHDDLHFVDRLVFDLQSKLDRIISWGQQSIDLWIGYDRHVHKFIRTAIDMDKNRVFAQRLRQSVQTYFDEPWALTYANADRLLDMRDEEMALRDEEVTGELPEDLEYEEFNEIREQLAAIIEEQLAVYKTRQVPLDLGLVVREYLSQYPRARHFDVARIVIDQAVRLGVAQADFTGLPAKWQPINDYGAKVQAHVIDKY
MKKVLITGFEPFGGDSKNPTEQIAKYFDRKQIGNAMVYGRVLPVSVKRATIELKRYLEEIKPEIVINLGLAPTYSNITVERIAVNIIDARIPDNDGYQPIDEKIEEDAPLAYMATLPVRAITKTLRDNGIPATISYSAGTYLCNYVMFKTLHFSKIEGYPLKAGFIHVPYTPDQVVNKFFLLGKNTPSMCLEAEIKAIELAVKVSLDYLEKDRDDIKIPL
EHAPATTGPLPSAPRDVVASLVSTRFIKLTWRTPASDPHGDNLTYSVFYTKEGIARERVENTSHPGEMQVTIQNLMPATVYIFRVMAQNKHGSGESSAPLRVETQPE
MSLLQTKDYEFWFVTGSQHLYGEETLELVDQHAKSICEGLSGISSRYKITHKPVVTSPETIRELLREAEYSETCAGIITWMHTFSPAKMWIEGLSSYQKPLMHLHTQYNRDIPWGTIDMDFMNSNQSAHGDREYGYINSRMGLSRKVIAGYWDDEEVKKEMSQWMDTAAALNESRHIKVARFGDNMRHVAVTDGDKVGAHIQFGWQVDGYGIGDLVEVMDRITDDEVDTLYAEYDRLYVISEETKRDEAKVASIKEQAKIELGLTAFLEQGGYTAFTTSFEVLHGMKQLPGLAVQRLMEKGYGFAGEGDWKTAALVRMMKIMAKGKRTSFMEDYTYHFEPGNEMILGSHMLEVCPTVALDQPKIEVHSLSIGGKEDPARLVFNGISGSAIQASIVDIGGRFRLVLNEVNGQEIEKDMPNLPVARVLWKPEPSLKTAAEAWILAGGAHHTCLSYELTAEQMLDWAEMAGIESVLISRDTTIHKLKHELKWNEALYRLQKEGHHHHHH
QTVAIKMGADNGMLAFEPSTIEIQAGDTVQWVNNKLAPHNVVVEGQPELSHKDLAFSPGETFEATFSEPGTYTYYCEPHRGAGMVGKIVVQ
MALETPTPGPPREGQSPASQAGTQHPPAQATAHSQSSPEFKGSLASLSDSLGVSVMATDQDSYSTSSTEEELEQFSSPSVKKKPSMILGKARHRLSFASFSSMFHAFLSNNRKLYKKVVELAQDKGSYFGSLVQDYKVYSLEMMARQTSSTEMLQEIRTMMTQLKSYLLQSTELKALVDPALHSEEELEAIVESALYKCVLKPLKEAINSCLHQIHSKDGSLQQLKENQLVILATTTTDLGVTTSVPEVPMMEKILQKFTSMHKAYSPEKKISILLKTCKLIYDSMALGNPGKPYGADDFLPVLMYVLARSNLTEMLLNVEYMMELMDPALQLGEGSYYLTTTYGALEHIKSYDKITVTRQLSVEVQDSIHRWERRRTLNKARASRSSVQDFICVSYLEPEQQARTLASRADTQAQALCAQCAEKFAVERPQAHRLFVLVDGRCFQLADDALPHCIKGYLLRSEPKRDFHFVYRPLDGGGGGGGSPPCLVVREPNFL
MNKKILIIDDNKMLGKLLAKKIQMTLDYEVDIAFGFAEAKELMNNDYFLAFVDLCLPDAPNGEVVDYVIEKKIPAIVLTASGDKATKEKFMDKDILDYIFKESETCIDEIISSIVKLNQYAKTKVIVAMSKLPERNEIKKILTQRQFNVLAAAHGEEAMSYLNDNNDVKLIIADVNMPVISGFELLTQVRERFSDDELGVILLGDHNDSFEANSFKNGVNEYLFKPLSKESFNCRLDRCLSYMDDKKFLSTYNVLDPVSGVKNYNALIDGIDDYFNEIATKDEEFAFAFLDIDNLQMINDEYGREVGDEVIKICANEIVNETKGRDLVGRYSAEKICILLKNISQERAIKIFSRIRVNIKKAGVLVNLDEVFFTASIGVVFGKSGDKIDSLADKASKILSQAKDNGKDRVEVCS
MGHHHHHHSHKKHNQGKEAAQRVLSQIDVAQKKLQDVSMKFRLFQKPANFEQRLQESKMILDEVKMHLPALETKSVEQEVVQSQLNHCVNLYKSLSEVKSEVEMVIKTGRQIVQKKQTENPKELDERVTALKLHYNELGAKVTERKQQLEKCLKLSRKMRKEMNVLTEWLAATDMELTKRSAVEGMPSNLDSEVAWGKATQKEIEKQKVHLKSITEVGEALKTVLGKKETLVEDKLSLLNSNWIAVTSRAEEWLNLLLEYQKHMETFDQNVDHITKWIIQADTLLDESEKKK

Soluble on expression in E. coli, not soluble:
MAHHHHHHMAWTVHEDEYRTEGYDNLEEILQYVVHTEESVQQSKPTVKYTKSSQVFATPSPLTAAELSSPIKHQLTNTVPWQPQSHTPTNSSFHSLGIPYTSAQSPQQRRCNNRFNGSYSGQCDRKPKIMSSSETCILSPGARKRGMGTGQMDHMMATELNEMPMPELITQEVLASKDMMVGGGYSDWSGSGSKYFQSGALTADSLRGRVYETAKDQHGCRYLQRWLDTNCDPEALQVMMNEIIPHVGELMTDQYANFLIQKLFDIMPDDVRYKVAIVAAPQICMISLTPHGTFSVQKMIETISTREEMEIISEALCKDVVRLVKDAHGNHVIQKVLQRFDFDDKEYIYRAVATDCVSIAKNKQGCCVLQRCLEHASPRQKAALVDQVLACCLQIVQDPFGNYVLQYVLEEHDSKINDTIALAFLPHLVQLSMNKFSSNVMEKVLRGASGPVQVMYMEEMCNPEIISHLIQDDYGNYVLQTALTINAPVQAAQLVNVIRPFMPLIRNAPYAKKMEGKMENVARKVECNHFHAPRDCEVDARQGSSGGSPHGKFDRSPNHGRHYVGGTDQQQPYNHPT
MEKIWPTGAQEETLMTQETNQNEVVVQNNAVAKTNTGSNYITAILEETKQGFVEANNGLDMDFVRMGEWLTVTKKGNFVEKDDENVSYGDNIDVVIGYGEQRWSVWGLEESPEAGQLIVAERTKEEAEIVLNQWLAENPQAQERYELDAIQLRYMASVVPVSTLRPDDFPRIYLMSFSPTDTIIFGRFAMNVYTGKYKALEIPSKLGVNRIVTRLVTAERKSRTNASNQWIGIDFQPVGVFKPEDYGINVEETEQAEKASE
MGSDKIHHHHHHMTYPKYTQQALSRYNLPRLKRIATELGVTPTGDKRAADTWVNAIIIHQSTKLQKVDNQALAQAELDSYIADQAQAIAPEPLTIVEISFDHHEYYADDKLVASISHDDSHLTQRWVVMINDKEIFRANTLMHCDRFICNHYKDGSLPVQEKEATPSTIENQIMAHIFNECQNYGFEILDDGIYNNGVKLGQVGCTDGNWWVKRRYSVQQQYSNSVLDAVRSLSMLDVSNGGKSIFDEYILDQPLEQLTGDRLQRLLERAELVTA
MAHHHHHHMRLHLPGRRDTRTASTGSSPVASLFLQKPIIFRKVAHGSASTILNVKRLELVLLETQSDQGKSEPDIQRLHWLTPHKLHQVHNDRITTATLQKNKVHSGYQFVLHIVQVSLEFLYRQKKAIILQLAERTLHERIFGGAKQLYHHQRAAGGGGK
MTKPIIGITANQRLNMALDNLPWSYAPTGFVQAVTQSGGLPLLLPIGDEAAAKTYVSMVDKIILIGGQNVDPKYYQEEKAAFDDDFSPERDTFELAIIKEAITLKKPILGICRGTQLMNVALGGNLNQHIDSHWQEAPSDFLSHEMIIEPDSILYPIYGHKTLINSFHRQSLKTVAKDLKVIARDPRDGTIEAVISTNDAIPFLGVQWHPELLQGVRDEDLQLFRLFVNDF
MKAMHMEQKIYKAKFSEYQLADNFINFNYLLKFKLGPEDVRAKGAFSTIFESTMLDWDLQLHKQFAGHILHSRESNWVISLNGSGVRDSYPPLHKLYFKVKAMGSDGSIKKSLKYFIDGLPIAPAERRGRMDHRSYTTLQNTQFERDLSTLIAEAKKKAQTIQLETRLEFKKNDLVDMKYLLGNGAPNMPDSLDYYFDAITNKSRHDLKLKTSDGMHFVMTNKEIVCLASQFFRQHLKDTTTEYTVGRADSVQSIDICLTYMITGIYKKPALLSPKLAFEIFALAMQWKVFEPKVLKNSIEKHCCEELQKNYEDIMYVCNMLIIADDAQFANVQNCCIATLVFYHAHDFIRIFVIGNHPLKERFSRRQEFLRPSLTMQVKRAFAASNESKCFIKFLPAIGED
MSDQLEASIKNILEQKTLKWIFVGGKGGVGKTTCSCSLAAQLSKVRERVLLISTDPAHNISDAFSQKFTKTPTLVEGFKNLFAMEIDSNPNGEGVEMGNIEEMLQNAAQNEGGSGGFSMGKDFLQSFAGGLPGIDEAMSFGEMIKLIDSLDFDVVVFDTAPTGHTLRLLQFPTLLEKVFTKILSLQGMFGPMMNQFGGMFGMGGGSMNEMIEKMTTTLESVKKMNAQFKDPNCTTFVCVCIAEFLSLYETERLIQELSKQGIDTHNIIVNQLLFPDTDANGTVSCRKCASRQAIQSKYLTDIDELYEDFHVVKLPLLEAEVRGGPAILQFSERMVDPEANKN
MMPNVAPNSYYLNIPNANSTSTTTSSIFSDLNKEYESKIKEIEEYYIKTLLNENTDNDDSSSSEGHNINETDILSEYSPRPSPWLPSKPNCYHPLGDFKDLIISDSRPTNTLPINNPFAGNNNISTLATTEKKRKKRSLEVRVNPTYTTSAFSLPLTAENLQKLSQVDSQSTGLPYTLPIQKTTKLEPCRRAPLQLPQLVNKTLYKTELCESFTIKGYCKYGNKCQFAHGLNELKFKKKSNNYRTKPCINWSKLGYCPYGKRCCFKHGDDKDVEIYQNANDGRSKDTALTPLPTSLAPSNNDNITNLSKPRNLHTSVKALQRMTW
MGSDKIHHHHHHMKKLFMSEYLNYVFQKKVWIVENIYMIKIMQLYYSSYNKKFISHTFFTDAIKNSSFPIFLNYVNNLNDKILYHSQVHGVKHILNVTFFSFLIACNENMSANDMGILLETALYHDIGRDDDMEDSDHGHRGAKKILMHISDNKMDMIIPAVIHAHSLLDEEAYQIFRQYNIEKSQYARYSKILSIIKDADALDRFRLRPNSLNPEYFRIDFSKILISLACVLSKVEWHE
